The text below walks through data of patent US20120058906A1 (published 2012).

Assay [1] deals with T1, rHuman ErbB2/Fc Chimera, CF (R&D Systems Cat#1129-ER) (human, UniProt P04626 23-652).
T1 construct: Bought Fc chimera; also called HER2/neu; human epidermal growth factor 2 receptor; Fc part of the bought chimera not given
Description: ECL (MSD Multi-Spot) titration, antigen spotted on plate; Fab 0.9375 nM; blank spot 153.

Assay [2] concerns the target T2, rHuman IGF-1 sR (IGF-1 sR), CF (R&D Systems Cat#391-GR) (human, UniProt P08069 31-932).
T2 construct: Bought soluble receptor; also called insulin-like growth factor-1 soluble receptor; IGF-R1
The assay is described as above.

Assay [3] deals with T3, rHuman CD44/Fc Chimera, CF (R&D Systems Cat#3660-CD) (human, UniProt P16070 21-220).
T3 construct: Bought Fc chimera; Fc part of the bought chimera not given
Described as above.

Assay [4] deals with T4, Recombinant Human DLL4 (R&D Systems Cat#1506-D4/CF) (human, UniProt Q9NR61 27-524).
T4 construct: Bought recombinant protein; also called delta-like protein 4
The description is as above.

For assay [5], the target named is T1, rHuman ErbB2/Fc Chimera, CF (R&D …). Description: ECL (MSD Multi-Spot) titration, antigen spotted on plate; Fab 60 nM; blank spot 1433.
Assay [6] addresses T2, rHuman IGF-1 sR (IGF-1 sR), CF (R&D …). The assay is described as above.
The target of assay [7] is T3, rHuman CD44/Fc Chimera, CF (R&D Systems …). The assay is described as above.
Assay [8] deals with T4, Recombinant Human DLL4 (R&D Systems …). Described as above.
For assay [9], the target named is T1, rHuman ErbB2/Fc Chimera, CF (R&D …). Description: ECL (MSD Multi-Spot) titration, antigen spotted on plate; Fab 15 nM; blank spot 536.
Assay [10] concerns the target T2, rHuman IGF-1 sR (IGF-1 sR), CF (R&D …). Described as above.
Assay [11] has as its target T3, rHuman CD44/Fc Chimera, CF (R&D Systems …). The description is as above.
Assay [12] has as its target T4, Recombinant Human DLL4 (R&D Systems …). The assay is described as above.
Assay [13] has as its target T1, rHuman ErbB2/Fc Chimera, CF (R&D …). Kind of assay: ECL (MSD Multi-Spot) titration, antigen spotted on plate; Fab 3.75 nM; blank spot 191.
For assay [14], the target named is T2, rHuman IGF-1 sR (IGF-1 sR), CF (R&D …). The description is as above.
Assay [15] concerns the target T3, rHuman CD44/Fc Chimera, CF (R&D Systems …). The description is as above.
Assay [16] addresses T4, Recombinant Human DLL4 (R&D Systems …). Described as above.
Assay [17] has as its target T5, rHuman IGF-1 sR, (IGF-1 sR), CF (R&D Systems Cat#391-GR) (human, UniProt P08069 31-932).
T5 construct: also called insulin-like growth factor-1 soluble receptor; IGF-R1
Kind of assay: MSD ECL multi-spot plate; Fab 70 nM; blank spot 635.

Assay [18] deals with T6, Recombinant Human DLL4 (R&D Systems Cat#1506-D4/CF) (human, UniProt Q9NR61 27-524).
T6 construct: also called delta-like protein 4
Described as above.

Assay [19] deals with T7, rHuman ErbB2/Fc Chimera, CF (R&D Systems Cat#1129-ER) (human, UniProt P04626 23-652).
T7 construct: also called HER2/neu; human epidermal growth factor 2 receptor; Fc part of the bought chimera not given
The assay is described as above.

In assay [20] the target is T8, rHuman Notch-1/Fc Chimera, CF (R&D Systems Cat#3647-TK) (human, UniProt P46531 19-526).
T8 construct: Fc part of the bought chimera not given
The description is as above.

In assay [21] the target is T9, rHuman HGF R/c-MET/Fc Chimera, CF (R&D Systems Cat#358-MT/CF) (human, UniProt P08581 25-932).
T9 construct: also called HGF R/Fc; hepatocyte growth factor receptor; Fc part of the bought chimera not given
The assay is described as above.

The target in assay [22] is T10, rHuman CD44/Fc Chimera, CF (R&D Systems Cat#3660-CD) (human, UniProt P16070 21-220).
T10 construct: Fc part of the bought chimera not given
The assay is described as above.

In assay [23] the target is T5, rHuman IGF-1 sR, (IGF-1 sR), CF (R&D …). Description: MSD ECL multi-spot plate; Fab 280 nM; blank spot 1691.
The target of assay [24] is T6, Recombinant Human DLL4 (R&D Systems …). The description is as above.
Assay [25] deals with T7, rHuman ErbB2/Fc Chimera, CF (R&D …). The description is as above.
The target in assay [26] is T8, rHuman Notch-1/Fc Chimera, CF (R&D …). The assay is described as above.
Assay [27] concerns the target T9, rHuman HGF R/c-MET/Fc Chimera, CF (R&D …). Described as above.
The target of assay [28] is T10, rHuman CD44/Fc Chimera, CF (R&D Systems …). Described as above.
Assay [29] deals with T5, rHuman IGF-1 sR, (IGF-1 sR), CF (R&D …). Description: MSD ECL multi-spot plate; Fab 17.5 nM; blank spot 304.
Assay [30] deals with T6, Recombinant Human DLL4 (R&D Systems …). The description is as above.
Assay [31] has as its target T8, rHuman Notch-1/Fc Chimera, CF (R&D …). The description is as above.
Assay [32] deals with T9, rHuman HGF R/c-MET/Fc Chimera, CF (R&D …). Described as above.
Assay [33] has as its target T5, rHuman IGF-1 sR, (IGF-1 sR), CF (R&D …). Description: MSD ECL multi-spot plate; Fab 4.375 nM; blank spot 305.
The target of assay [34] is T6, Recombinant Human DLL4 (R&D Systems …). The assay is described as above.
In assay [35] the target is T7, rHuman ErbB2/Fc Chimera, CF (R&D …). The assay is described as above.
Assay [36] deals with T8, rHuman Notch-1/Fc Chimera, CF (R&D …). Described as above.
The target of assay [37] is T9, rHuman HGF R/c-MET/Fc Chimera, CF (R&D …). Described as above.
Assay [38] has as its target T10, rHuman CD44/Fc Chimera, CF (R&D Systems …). The assay is described as above.
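Also: blank spot per well as comparator with Hit at signal to blank ratio of 4 or more.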

B1: Fab VH1-3_IGHD4-23*01_IGHJ4*01 & L12_IGKJ1*01 (Fab, V domains shown)
VH: QVQLVQSGAEVKKPGASVKVSCKASGYTFTSYAMHWVRQAPGQRLEWMGWSNAGNGNTKYSQEFQGRVTITRDTSASTAYMELSSLRSEDMAVYYCARDDYGGNSDYFDYWGQGTLVTVSS
VL: not shown
Consider B1, for which the ECL signal in assay [1] was determined as 268; in [2], 204; in [3] it was 251; in [4], 453; in assay [5], 2160; in assay [6] it was 2670. In addition, the ECL signal in assay [7] amounted to 2360; in assay [8], 17300; in [9], 740; in [10], 859; in [11], 748; in [12], 7730. Further, the ECL signal in assay [13] was determined as 291; in assay [14], 314; in assay [15] it was 307; in [16], 1570.

B2: Fab VH1-46_IGHD2-15*01_IGHJ2*01 & L12_IGKJ1*01 (Fab, V domains shown)
VH: QVQLVQSGAEVKKPGASVKVSCKASGYTFTSYYMHWVRQAPGQGLEWMGIINPSGGSTSYAQKFQGRVTMTRDTSTSTVYMELSSLRSEDTAVYYCAREGYCSGGSCYSYWYFDLWGRGTLVTVSS
VL: not shown
As to B2, the ECL signal worked out at 1320 ECL signal in assay [17]; 2750 ECL signal in [18]; 1360 ECL signal in [19]; 1490 ECL signal in assay [20]; 1290 ECL signal in assay [21]; 1370 ECL signal in assay [22]. Besides, the ECL signal in assay [23] was 3530 ECL signal; in assay [24], 8110 ECL signal; in assay [25] it was 3950 ECL signal; in [26] it was 4380 ECL signal; in assay [27], 3560 ECL signal; in [28], 4070 ECL signal. The ECL signal was found to be 626 ECL signal in assay [29]; 1220 ECL signal in [30]; 680 ECL signal in assay [31]; 565 ECL signal in [32]; 369 ECL signal in assay [33]; 558 ECL signal in assay [34]. The ECL signal amounted to 384 ECL signal in assay [35], 480 ECL signal in [36], 193 ECL signal in assay [37] and 424 ECL signal in assay [38].
